Patent US20250154275A1 (SHANGHAI JUNSHI BIOSCIENCES, published 2025)
Numbering of substitutions follows the chain as printed.

T1: CD20 on the surface of Raji cells (human, UniProt P11836 1-297)
T1 construct: whole, on cells; Raji cells are described as human B lymphoma cells, CD20 positive; also called human CD20
T1 sequence (looked up): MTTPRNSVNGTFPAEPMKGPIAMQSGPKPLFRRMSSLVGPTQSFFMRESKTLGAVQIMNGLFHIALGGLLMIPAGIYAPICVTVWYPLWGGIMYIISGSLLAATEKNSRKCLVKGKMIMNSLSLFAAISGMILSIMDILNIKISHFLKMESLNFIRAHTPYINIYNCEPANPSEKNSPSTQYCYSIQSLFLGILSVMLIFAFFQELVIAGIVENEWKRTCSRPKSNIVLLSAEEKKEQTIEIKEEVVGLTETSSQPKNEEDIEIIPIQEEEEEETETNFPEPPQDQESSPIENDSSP

B1: JSCD3 (antibody, human IgG4 S228P, kappa, V domains shown)
VH: EVQLVESGGGLVQPGGSLKLSCAASGFTFSTYAMNWVRQAPGKGLEWVGRIRSKYNNYATYYADSVKDRFTISRDDSKNSLYLQMNSLKTEDTAVYYCVRHGNFGNSYVSWFAYWGQGTLVTVSS
VL: QAVVTQEPSLTVSPGGTVTLTCRSSTGAVTTSNYANWVQQKPGQAPRGLIGGTNKRAPGTPARFSGSLLGGKAALTLSGVQPEDEAEYYCALWYSNLWVFGGGTKLTVLR
notes: humanized from murine SP34; also called humanized anti-CD3 antibody JSCD3; positive control
B2: bispecific antibody molecule TZT6 (bispecific antibody, human IgG4 S228P, kappa)
heavy: QVQLVQSGAEVKKPGSSVKVSCKASGYAFSYSWINWVRQAPGQGLEWMGRIFPGDGDTDYNGKFKGRVTITADKSTSTAYMELSSLRSEDTAVYYCARNVFDGYWLVYWGQGTLVTVSSASTKGPSVFPLAPCSRSTSESTAALGCLVKDYFPEPVTVSWNSGALTSGVHTFPAVLQSSGLYSLSSVVTVPSSSLGTKTYTCNVDHKPSNTKVDKRVESKYGPPCPPCPAPEFLGGPSVFLFPPKPKDTLMISRTPEVTCVVVDVSQEDPEVQFNWYVDGVEVHNAKTKPREEQFNSTYRVVSVLTVLHQDWLNGKEYKCKVSNKGLPSSIEKTISKAKGQPREPQVYTLPPCQEEMTKNQVSLWCLVKGFYPSDIAVEWESNGQPENNYKTTPPVLDSDGSFFLYSRLTVDKSRWQEGNVFSCSVMHEALHNHYTQKSLSLSLGK
light: DIVMTQTPLSLPVTPGEPASISCRSSKSLLHSNGITYLYWYLQKPGQSPQLLIYQMSNLVSGVPDRFSGSGSGTDFTLKISRVEAEDVGVYYCAQNLELPYTFGGGTKVEIKRTVAAPSVFIFPPSDEQLKSGTASVVCLLNNFYPREAKVQWKVDNALQSGNSQESVTEQDSKDSTYSLSSTLTLSKADYEKHKVYACEVTHQGLSSPVTKSFNRGEC
chain: QAVVTQEPSLTVSPGGTVTLTCRSSTGAVTTSNYANWVQQKPGQAPRGLIGGTNKRAPGTPARFSGSLLGGKAALTLSGVQPEDEAEYYCALWYSNLWVFGCGTKLTVLGGGGSGGGGSGGGGSGGGGSEVQLVESGGGLVQPGGSLKLSCAASGFTFSTYAMNWVRQAPGKCLEWVGRIRSKYNNYATYYADSVKDRFTISRDDSKNSLYLQMNSLKTEDTAVYYCVRHGNFGNSYVSWFAYWGQGTLVTVSSGGGGSGGGGSESKYGPPCPPCPAPEFLGGPSVFLFPPKPKDTLMISRTPEVTCVVVDVSQEDPEVQFNWYVDGVEVHNAKTKPREEQFNSTYRVVSVLTVLHQDWLNGKEYKCKVSNKGLPSSIEKTISKAKGQPREPQVCTLPPSQEEMTKNQVSLSCAVKGFYPSDIAVEWESNGQPENNYKTTPPVLDSDGSFFLVSRLTVDKSRWQEGNVFSCSVMHEALHNRFTQKSLSLSLGK
notes: also called anti-CD3/CD20 bispecific antibody TZT6
B3: bispecific antibody molecule TZT7 (bispecific antibody, human IgG4 S228P, kappa)
heavy: B2 heavy with Y348C, C353S, W365S, L367A, Y406V, H434R, Y435F
light: B2 light
chain: QVQLVQSGAEVKKPGSSVKVSCKASGYAFSYSWINWVRQAPGQGLEWMGRIFPGDGDTDYNGKFKGRVTITADKSTSTAYMELSSLRSEDTAVYYCARNVFDGYWLVYWGQGTLVTVSSASTKGPSVFPLAPCSRSTSESTAALGCLVKDYFPEPVTVSWNSGALTSGVHTFPAVLQSSGLYSLSSVVTVPSSSLGTKTYTCNVDHKPSNTKVDKRVASGGGGSGGGGSQAVVTQEPSLTVSPGGTVTLTCRSSTGAVTTSNYANWVQQKPGQAPRGLIGGTNKRAPGTPARFSGSLLGGKAALTLSGVQPEDEAEYYCALWYSNLWVFGCGTKLTVLGGGGSGGGGSGGGGSGGGGSEVQLVESGGGLVQPGGSLKLSCAASGFTFSTYAMNWVRQAPGKCLEWVGRIRSKYNNYATYYADSVKDRFTISRDDSKNSLYLQMNSLKTEDTAVYYCVRHGNFGNSYVSWFAYWGQGTLVTVSSGGGGSGGGGSESKYGPPCPPCPAPEFLGGPSVFLFPPKPKDTLMISRTPEVTCVVVDVSQEDPEVQFNWYVDGVEVHNAKTKPREEQFNSTYRVVSVLTVLHQDWLNGKEYKCKVSNKGLPSSIEKTISKAKGQPREPQVYTLPPCQEEMTKNQVSLWCLVKGFYPSDIAVEWESNGQPENNYKTTPPVLDSDGSFFLYSRLTVDKSRWQEGNVFSCSVMHEALHNHYTQKSLSLSLGK
notes: IgG4 Fc (G4 FC in the vector's name); also called anti-CD3/CD20 bispecific antibody TZT7

How the values were obtained:
[1] = target: T1, CD20 on the surface of Raji cells; assay: flow cytometry on Raji cells (CD20 positive), fluorescent secondary antibody, µg/mL is the unit of the axis; fit value of a flat curve
[2] = target: T1, CD20 on the surface of Raji cells; assay: flow cytometry on Raji cells (CD20 positive), MFI dose curve
[3] = target: T2, human CD3 on the surface of Jurkat cells (human, UniProt P07766 23-207; P04234 22-171; P09693 23-182); assay: flow cytometry on Jurkat cells (CD3-positive), MFI dose curve
T2 construct: whole, on cells
T2 sequence (P07766 23-207, chain 1 of 3): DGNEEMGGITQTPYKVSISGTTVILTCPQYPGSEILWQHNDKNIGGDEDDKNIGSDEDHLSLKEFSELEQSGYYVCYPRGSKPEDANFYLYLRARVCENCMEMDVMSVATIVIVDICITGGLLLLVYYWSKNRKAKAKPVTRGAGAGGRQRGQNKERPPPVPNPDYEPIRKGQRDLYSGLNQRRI
T2 sequence (P04234 22-171, chain 2 of 3): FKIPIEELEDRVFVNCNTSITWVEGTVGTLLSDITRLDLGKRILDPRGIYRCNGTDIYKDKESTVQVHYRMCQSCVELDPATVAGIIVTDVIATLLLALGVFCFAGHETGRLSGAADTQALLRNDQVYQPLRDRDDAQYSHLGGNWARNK
T2 sequence (P09693 23-182, chain 3 of 3): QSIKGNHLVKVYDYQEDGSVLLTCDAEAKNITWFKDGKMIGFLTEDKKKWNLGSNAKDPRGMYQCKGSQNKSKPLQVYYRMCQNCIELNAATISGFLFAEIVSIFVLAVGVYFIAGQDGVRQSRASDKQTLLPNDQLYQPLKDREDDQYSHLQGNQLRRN

[4] = target: T3, cynomolgus monkey CD3e overexpressed on the surface of CHO cells (cynomolgus monkey, UniProt Q95LI5 22-198); assay: flow cytometry on CHO cells overexpressing cynomolgus monkey CD3e, fluorescent secondary antibody
T3 construct: whole, on cells; also called CHO Cyno CD3e cells
T3 sequence (Q95LI5 22-198): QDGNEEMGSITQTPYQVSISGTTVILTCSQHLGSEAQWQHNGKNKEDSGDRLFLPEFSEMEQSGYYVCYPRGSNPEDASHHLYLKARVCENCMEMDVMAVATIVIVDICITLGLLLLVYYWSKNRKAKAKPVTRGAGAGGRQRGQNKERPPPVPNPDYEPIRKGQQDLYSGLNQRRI

[5] = target: T4, recombinant human CD3ε (Novoprotein, C578) (human, UniProt P07766 23-126); assay: ELISA, plate coated with recombinant human CD3ε, anti-human IgG4 Fc-HRP detection
T4 construct: Bought protein coated on the ELISA plate
T4 sequence (P07766 23-126 limits assumed): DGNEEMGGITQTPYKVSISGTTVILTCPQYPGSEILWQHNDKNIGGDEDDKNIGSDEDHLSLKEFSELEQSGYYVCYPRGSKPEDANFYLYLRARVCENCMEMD

[6] = target: T3, cynomolgus monkey CD3e overexpressed on …; assay: flow cytometry on CHO cells overexpressing cynomolgus monkey CD3e

Molecule	EC50 [1]	EC50 [2]	EC50 [3]	binding result [4]	EC50 [5]	binding result [6]
Anti-KLH IgG4 (antibody)	52 µg/mL					
REGN1979 (Regeneron Pharmaceuticals) (bispecific antibody)		30.1 µg/mL	4.7 µg/mL			
B1				binds		
B2		3.67 µg/mL	4.44 µg/mL		0.0214 µg/mL	binds
B3		0.515 µg/mL	26.6 µg/mL		0.0856 µg/mL	binds
